According to article PMC6774274, “Engineering a Seven Enzyme Biotransformation using Mathematical Modelling and Characterized Enzyme Parts” (Chemcatchem, 2019):
Blank lines part the entries; values can stand above or below the molecule they belong to.

What was measured:
mpCAR [1] = target: T1, mpCAR (Mycolicibacterium phlei, UniProt A0A5N5VEC4); assay: inhibition of CAR reaction; format: biochemical; settings: read-out: K I-ADP
T1 construct: gene car; N-terminal 6xHis tag, pNIC28-Bsa4, E. coli BL21(DE3); co-expressed with Bacillus subtilis phosphopantetheine transferase; gene from genomic DNA
T1 sequence (A0A5N5VEC4 1-1162): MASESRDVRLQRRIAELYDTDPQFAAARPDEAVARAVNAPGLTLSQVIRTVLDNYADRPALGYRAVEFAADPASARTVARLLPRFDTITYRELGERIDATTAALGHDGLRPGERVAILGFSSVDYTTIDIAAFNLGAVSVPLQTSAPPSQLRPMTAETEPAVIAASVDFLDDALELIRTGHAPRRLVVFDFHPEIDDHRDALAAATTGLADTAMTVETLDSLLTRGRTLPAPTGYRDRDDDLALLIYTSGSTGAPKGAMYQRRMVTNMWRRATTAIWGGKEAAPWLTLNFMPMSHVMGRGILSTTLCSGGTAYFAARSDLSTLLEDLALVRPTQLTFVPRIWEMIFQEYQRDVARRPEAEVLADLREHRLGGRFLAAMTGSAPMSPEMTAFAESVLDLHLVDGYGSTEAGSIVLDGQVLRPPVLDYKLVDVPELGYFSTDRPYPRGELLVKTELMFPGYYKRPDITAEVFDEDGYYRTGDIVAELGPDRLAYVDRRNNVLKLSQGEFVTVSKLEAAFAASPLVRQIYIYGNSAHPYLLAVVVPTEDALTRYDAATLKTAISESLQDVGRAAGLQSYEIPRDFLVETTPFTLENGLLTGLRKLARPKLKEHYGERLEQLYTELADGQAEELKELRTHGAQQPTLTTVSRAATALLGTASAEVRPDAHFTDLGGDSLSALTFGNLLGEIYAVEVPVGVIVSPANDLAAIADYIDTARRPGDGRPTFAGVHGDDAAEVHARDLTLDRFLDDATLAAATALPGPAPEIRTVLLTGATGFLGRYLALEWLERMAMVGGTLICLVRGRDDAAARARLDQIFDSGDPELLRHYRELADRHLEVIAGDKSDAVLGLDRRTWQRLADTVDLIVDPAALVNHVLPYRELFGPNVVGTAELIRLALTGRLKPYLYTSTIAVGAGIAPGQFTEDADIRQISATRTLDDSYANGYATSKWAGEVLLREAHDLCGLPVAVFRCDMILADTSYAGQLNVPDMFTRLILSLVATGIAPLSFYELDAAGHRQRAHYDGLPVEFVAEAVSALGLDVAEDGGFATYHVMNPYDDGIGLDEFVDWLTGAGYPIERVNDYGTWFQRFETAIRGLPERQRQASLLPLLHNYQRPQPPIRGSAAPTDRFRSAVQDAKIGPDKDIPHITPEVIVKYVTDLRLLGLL
Excerpt: inhibition of CAR reaction on mpCAR

mpCAR [2] = target: T1, mpCAR; assay: NADPH oxidation at […] nm, two-substrate fit; format: biochemical; settings: kinetic constant for ATP in the ordered rate equation, not an inhibition constant; otherwise as row above
purified protein [3] = substrate: Cc1ccc(C(=O)O)cc1; assay: purified protein; settings: 0.25 mM NADPH, 10 mM MgCl2, varied ATP, 100 mM Tris-HCl pH 7.5, 30 °C
purified protein [4] = substrate: NC(=O)C1=CN([C@@H]2O[C@H](COP(=O)(O)OP(=O)(O)OC[C@H]3O[C@@H](n4cnc5c(N)ncnc54)[C@H](OP(=O)(O)O)[C@@H]3O)[C@@H](O)[C@H]2O)C=CC1; assay: purified protein; format: biochemical, Mycolicibacterium phlei; settings: 10 mM MgCl2, 1 mM ATP, 10 mM 4-toluic acid, 100 mM Tris-HCl pH 7.5, 30 °C, varied: cofactor
purified protein [5] = substrate: Nc1ncnc2c1ncn2[C@@H]1O[C@H](COP(=O)(O)OP(=O)(O)OP(=O)(O)O)[C@@H](O)[C@H]1O; assay: purified protein; format: biochemical, Mycolicibacterium phlei; settings: 0.25 mM NADPH, 10 mM MgCl2, varied 4-toluic acid, 100 mM Tris-HCl pH 7.5, 30 °C
[6] = substrate: Nc1ncnc2c1ncn2[C@@H]1O[C@H](COP(=O)(O)O)[C@@H](O)[C@H]1O; assay: ADP-Glo kinase assay, luminescence; format: biochemical, Thermodesulfobium narugense; settings: polyphosphate co-substrate (12.5 mM PO3 units), 20 or 40 mM MgCl2, 100 mM Tris-HCl pH 7.5, 15 min
Excerpt: ADP-Glo kinase assay, luminescence on tnPAP

Ki (mpCAR [1]): 11 mM
Molecule: Nc1ncnc2c1ncn2[C@@H]1O[C@H](COP(=O)(O)OP(=O)(O)O)[C@@H](O)[C@H]1O [ADP]

K I-ATP (mpCAR [2]): 40 ± 34 µM
Molecule: Nc1ncnc2c1ncn2[C@@H]1O[C@H](COP(=O)(O)OP(=O)(O)OP(=O)(O)O)[C@@H](O)[C@H]1O [ATP]

B1: mpCAR (Mycolicibacterium phlei DSM 43239 = CCUG 21000) (protein)
chain: T1 sequence (A0A5N5VEC4 1-1162)
notes: N-terminal 6xHis tag, pNIC28-Bsa4, E. coli BL21(DE3); co-expressed with Bacillus subtilis phosphopantetheine transferase; gene from genomic DNA
Km (purified protein [3]): 1,500±320 μM | kcat (purified protein [3]): 200 ± 20 min⁻¹ | Km (purified protein [4]): 30 ± 8 µM | kcat (purified protein [4]): 200 ± 20 min⁻¹ | Km (purified protein [5]): 100 ± 28 µM | kcat (purified protein [5]): 200 ± 20 min⁻¹

B2: tnPAP (Thermodesulfobium narugense DSM 14796) (protein)
chain: MLEKVDLNKIMDREDYKKEFDNLSIELGALQREARDLKLPIIIVFDGFEAAGKGTLINKLMLPLDPRGYDVIKRFECPSETDNRPYFYKFWKTIPKRGDISIVNESWYKALLSDRVLKKTSPEIVEYLFDEILSFEGQLVADGYLIVKFFLYISEEEQKDRLKKLKKNKDESWRVTDDVLKLHKKYKKFLDAAETVFEKTDTAFAPWTIIEATDKRYATIKIFKTLIEAIKFKIKAIKEKEELPSFENFYPVNELSSLSKIDLNKSLTYEEYIEKLHPLQREIHDLQYRLWKERVPVIVAFEGWDAAGKGGSIKRLTEAMDPRGYTVIPIGAPNEYELAHHYLWRFWQNVPEKGNIAIFDRTWYGRVLVERVEKLCKDFDWQRAYGEIKQMEKQFTNFGIVLLKFWLHIDKKTQLERFEEREKNPFKHWKITEDDWRNRSKWDDYLPAVEEMLIRTSTAEAPWNIIEANDKYFARIKVLETFVNKIKEKLN
notes: N-terminal 6xHis tag, codon-optimised, pNIC28-Bsa4, E. coli
Km [6]: 280 ± 240 µM | kcat [6]: 250 ± 125 min⁻¹
